# US20060140889A1 (L MABS B V, published 2006)
# Columns and labels:
# [1] = target: T1, chicken lysozyme (chicken, UniProt P00698 19-147); assay: ELISA on lysozyme, 100-fold dilution of the protein extract
# T1 construct: also called Egg White Lysozyme
# [2] = target: T1, chicken lysozyme; assay: ELISA, well coated with lysozyme (100 ug/ml) and blocked with ELK, ~50 ng iMab per well, anti-VSV-HRP; urea purification
# [3] = target: T1, chicken lysozyme; assay: ELISA
# [4] = target: T2, bovine lactoferrin (bovine, UniProt P24627 20-708); assay: not described at this place
# T2 construct: also called LF
# T2 sequence (P24627 20-708 limits assumed): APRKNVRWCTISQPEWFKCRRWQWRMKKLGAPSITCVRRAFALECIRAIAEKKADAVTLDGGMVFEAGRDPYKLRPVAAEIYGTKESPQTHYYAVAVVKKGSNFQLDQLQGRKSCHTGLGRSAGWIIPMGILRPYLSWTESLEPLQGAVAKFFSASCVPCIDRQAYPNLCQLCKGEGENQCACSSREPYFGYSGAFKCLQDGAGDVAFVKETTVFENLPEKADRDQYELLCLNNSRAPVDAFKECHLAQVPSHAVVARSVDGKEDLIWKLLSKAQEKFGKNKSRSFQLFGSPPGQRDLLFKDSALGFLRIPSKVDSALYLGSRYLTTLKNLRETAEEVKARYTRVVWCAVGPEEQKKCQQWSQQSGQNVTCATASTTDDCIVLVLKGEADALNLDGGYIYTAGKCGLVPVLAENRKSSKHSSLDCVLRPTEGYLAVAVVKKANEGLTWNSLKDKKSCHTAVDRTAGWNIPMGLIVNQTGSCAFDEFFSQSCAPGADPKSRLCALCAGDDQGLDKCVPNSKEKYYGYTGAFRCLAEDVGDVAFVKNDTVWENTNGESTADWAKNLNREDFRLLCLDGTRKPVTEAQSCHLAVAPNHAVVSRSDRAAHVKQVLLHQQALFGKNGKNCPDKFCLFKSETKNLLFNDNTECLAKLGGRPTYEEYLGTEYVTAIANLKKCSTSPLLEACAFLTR
# T1 sequence (P00698 19-147 limits assumed): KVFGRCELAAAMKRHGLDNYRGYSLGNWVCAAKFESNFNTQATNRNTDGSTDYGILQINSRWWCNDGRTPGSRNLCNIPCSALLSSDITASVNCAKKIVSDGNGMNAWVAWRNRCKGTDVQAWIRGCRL
binder,measurement,setting,value
"iMab111 (designed binder, iMab100 derivative with two extra cysteines in the core; E. coli, CM126) NVKLVCKGGNFVENDDDLKLTCRAEGYTIGPYCMGWFRQAPNDDSTNVATINMGGGITYYGDSVKERFDIRRDNASNTVTLSMDDLQPEDSAEYNCAGDSTIYASYYECGHGLSTGGYGYDSHYRCQGTDVTVSS",signal over background signal (fold),[1],~20 fold
same,Absorbtion (450 nm),[2],0.42 absorbance at 450 nm
"iMab115 (designed binder, iMab100 with the asparagine of the putative N-glycosylation site in AR3 changed to glutamine; expressed in E. coli as a 21 kD protein; also called iMab15) NVKLVEKGGNFVENDDDLKLTCRAEGYTIGPYCMGWFRQAPNDDSTNVATINMGGGITYYGDSVKERFDIRRDQASNTVTLSMDDLQPEDSAEYNCAGDSTIYASYYECGHGLSTGGYGYDSHYRGQGTDVTVSS",binding result,[3],binds
"iMab116 (designed binder, iMab100 derivative lacking one core cysteine; E. coli, CM126; also called iMab16; not shown: C-terminal linker, VSV tag and 6x His tag of vector CM126) NVKLVEKGGNFVENDDDLKLTCRAEGYTIGPYCMGWFRQAPNDDSTNVATINMGGGITYYGDSVKERFDIRRDNASNTVTLSMDDLQPEDSAEYNGAGDSTIYGSYYECGHGLSTGGYGYDSHYRGQGTDVTVSS",Absorbtion (450 nm),[2],0.238 absorbance at 450 nm
"iMab122 (designed binder, 9 beta-strand iMab; E. coli, CM126; not shown: C-terminal linker, VSV tag and 6x His tag of vector CM126) NVKLVEKGGNFVENDDDLKLTCRASGRTFSSRTMGWFRQAPNDDSTNVATIRWNGGSTYYTNYGDSVKERFDIRVDQASNTVTLSMDDLQPEDSAEYNCAGTDIGDGWSGRYDYRGQGTDVTVSS",Absorbtion (450 nm),[2],0.271 absorbance at 450 nm
"iMab142-xx-0002 (designed binder, not shown: small tags and cut ends, also called iMab142-xx-002) MNVKLVEKGGNFVENDDDLKLTCRAEGYTIGPYSMGWFRQAPNDDSTNVSCINMGGGITYYGDSVKERFDIRRDNASNTVTLSMDDLQPEDSAVYNCAADWWDGFTYGSTWYNPSSYDYRGQGTDVTVSS",binding result,[4],binds
"iMab148-xx-0002 (designed binder, Derivative of iMab142-xx-0002 in which all lysine residues were replaced; xx = C-terminal tag not specified) MNVHLVERGGNFVENDDDLNLTCRAEGYTIGPYSMGWFRQAPNDDSTNVATINMGGGITYYGDSVDERFDIRRDNASNTVTLSMDDLQPEDSAVYNCAADWWDGFTYGSTWYNPSSYDYRGQGTDVTVSS",binding result,[4],binds
